Measurements taken from patent publication US20200055937A1 (REMD BIOTHERAPEUTICS, published 2020).
Where a chain is given by its changes, count along the chain named.

T1: human CTLA-4 (human, UniProt P16410 36-161, limits assumed)
T1 construct: also called HuCTLA-4; human cytotoxic T lymphocyte antigen-4
T1 sequence: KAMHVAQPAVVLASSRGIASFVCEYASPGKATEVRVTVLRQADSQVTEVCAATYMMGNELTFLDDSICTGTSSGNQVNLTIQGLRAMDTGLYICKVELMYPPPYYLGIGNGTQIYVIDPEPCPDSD

T2: CTLA4-his (UniProt P16410 36-161, limits assumed)
T2 construct: construct not described; also called Ag CTLA4-his; Antigen CTLA4-his; not shown: his tag
T2 sequence (looked up): T1 sequence

T3: CTLA4-Fc (UniProt P16410 36-161, limits assumed)
T3 sequence (looked up): T1 sequence

T4: cyno Macaque CTLA-4 (cyno Macaque, UniProt G7PL88 36-161)
T4 construct: ELISA antigen; construct not described; also called CynoCTLA-4; cyno CTLA-4
T4 sequence: T1 sequence with S14N, I18T, L106M

B1: MAb A5 (32G4C12) (antibody, V domains shown)
VH: QVQLQQSGPELVRPGASVKLSCKASGYTFTTYDINWVKQRPGQGLEWIGWIYPRDGSIIFNEKFKGKATLTVDTTSSTAYMELHSLTSEDSAVYFCARRGLLGPLDYWGQGTPLTVSS
VL: DIVMTQSHKFMSTSVGDRVSITCKASQDVATTVAWYQQKPGQSPKLVIYWASTRHTGVPDRFTGSGSGTDFTLTISNVQSEDLADYFCQQYSSYPTFGVGTKLELK
notes: also called murine antibody A5
B2: MAb A2 (7G10D3) (antibody, V domains shown)
VH: QIQLVQSGPELKKPGETVKISCKASGYTFTTYGMSWVKQTPGKGLKWMGWINTYSGVPTYADDFKGRFAFSLETSASTAYLQINNLKNEDTATYFCARGRDYYGSSYRLFGVWGTGTTVTVSS
VL: DIQMTQTTSSLSASLGDRVTISCRASQDISNYLNWYQQKPDGTVKLLIYYTSILNSGVPSKFSGSGSGTDYSLTISNLEQEDIATYFCQQGNTLPWTFGGGTKLEIK
notes: also called murine antibody A2
B3: MAb A3 (32G12D2) (antibody, V domains shown)
VH: QVQLQQPGAELVRPGSSVKLSCKASGYTFTSYWMHWVKQRPIQGLEWIGNIDPSDSETHYNQNFKDKATLTVDKSSSTAYLQLSSLTSEDSAVYYCARRYTSSSFDYWGQGTTLTVSS
VL: B2 VL with I21V, S30R, Y50F, I53K, N55H, K61R, S72F, T74A, W96Y
notes: also called murine antibody A3
B4: Humanized Ab 8 (VH3 + VL2) (antibody, human IgG1, kappa, V domains shown)
VH: QVQLVQSGAEVKKPGASVKVSCKASGYKFTDHFINWVKQAPGQGLEWIGDINPNNGGTNSNQKFEGRVTLTVDTSISTAYMELSRLRSDDTAVYYCARLRREYFYAMDYWGQGTLVTVSS
VL: DIVMTQSPLSLPVTPGEPASISCRSSKSLLHSNGITYLYWYLQKPGQSPQLLIYQMSNLASGVPDRFSSSGSGTDFTLKISRVEAEDVGVYYCAQNLELPLTFGGGTKVEIKR
notes: Humanized IgG1 derived from MAb A4, full length, HEK293
B5: Humanized Ab 4 (VH2 + VL1) (antibody, human IgG1, kappa, V domains shown)
VH: B4 VH with K38R, L70M
VL: B4 VL with S69G
notes: as for B4
B6: Humanized Ab 11 (VH4 + VL2) (antibody, human IgG1, kappa)
heavy: not shown
light: DIVMTQSPLSLPVTPGEPASISCRSSKSLLHSNGITYLYWYLQKPGQSPQLLIYQMSNLASGVPDRFSSSGSGTDFTLKISRVEAEDVGVYYCAQNLELPLTFGGGTKVEIKRTVAAPSVFIFPPSDEQLKSGTASVVCLLNNFYPREAKVQWKVDNALQSGNSQESVTEQDSKDSTYSLSSTLTLSKADYEKHKVYACEVTHQGLSSPVTKSFNRGEC
notes: Humanized IgG1 derived from MAb A4
B7: Humanized Ab 3 (VH1 + VL3) (antibody, human IgG1, kappa)
heavy: not shown
light: B6 light with V109L
notes: as for B4
B8: Humanized Ab 7 (VH3 + VL1) (antibody, human IgG1, kappa, V domains shown)
VH: B4 VH
VL: B4 VL with S69G
notes: as for B4
B9: Humanized Ab 10 (VH4 + VL1) (antibody, human IgG1, kappa, V domains shown)
VH: B4 VH with V20I, V68A
VL: B4 VL with S69G
notes: as for B4
B10: Humanized Ab 6 (VH2 + VL3) (antibody, human IgG1, kappa)
heavy: not shown
light: B6 light with V109L
notes: as for B4
B11: Humanized Ab 13 (VH5 + VL3) (antibody, human IgG1, kappa, V domains shown)
VH: B4 VH with K12V, V20I, A40N, V68A
VL: B4 VL with V109L
notes: as for B4
B12: Humanized Ab 1 (VH1 + VL1) (antibody, human IgG1, kappa, V domains shown)
VH: B4 VH with K38R, I48M, L70M, V72R
VL: B4 VL with S69G
notes: as for B4
B13: Humanized Ab 12 (VH4 + VL3) (antibody, human IgG1, kappa)
heavy: not shown
light: B6 light with V109L
notes: as for B4
B14: Humanized Ab 5 (VH2 + VL2) (antibody, human IgG1, kappa)
heavy: not shown
light: B6 light
notes: as for B4
B15: Humanized Ab 14 (VH6 + VL3) (antibody, human IgG1, kappa, V domains shown)
VH: B4 VH with R67K, V68A, T74K, S84R
VL: B4 VL with V109L
notes: as for B6
B16: Humanized Ab 2 (VH1 + VL2) (antibody, human IgG1, kappa)
heavy: not shown
light: B6 light
notes: as for B4

Target: T1, human CTLA-4
Test: ratio of the IC50 for blocking CD80 to the IC50 for blocking CD86 on CTLA-4

| CD80/CD86 Blocking Ratio | Binder |
| --- | --- |
| 2.37 | B1 |
| 7.91 | B2 |
| 2.23 | B3 |

Target: T1, human CTLA-4
Test: ELISA, human CTLA-4 binding

| EC50 [nM] | Binder |
| --- | --- |
| 0.049 | B1 |
| 0.077 | B2 |
| 0.026 | B3 |

Target: T2, CTLA4-his
Test: SPR Biacore T200, antibody from supernatant captured by anti-human Fc, CTLA4-his injected
Procedure: Affinity ranking of the fifteen humanized antibodies was determined using a Surface Plasmon Resonance (SPR) biosensor, Biacore T200 (GE Healthcare). Anti-human Fc gamma specific antibody was immobilized onto the sensor chip using amine coupling method. […] After equilibration, Ag CTLA4-his was injected for 300 seconds (association phase) followed by the injection of running buffer for 600s (dissociation phase). Responses of reference flow cell (flow cell 1) were subtracted from those of humanized antibodies flow cells during each cycle. The surface was regenerated before the injection of other humanized antibodies. The process was repeated until all antibodies are analyzed. The off-rates of humanized antibodies were obtained from fitting the experimental data locally to 1:1 interaction model using the Biacore 8K evaluation software. The antibodies were ranked by their dissociation rate constants (off-rates, kd).

| Kd [nM] | koff [s⁻¹] | kon [M⁻¹ s⁻¹] | Binder |
| --- | --- | --- | --- |
| 0.791 | 0.000523 | 661000 | B4 |
| 0.83 | 0.000611 | 736000 | B5 |
| 0.684 | 0.000305 | 446000 | B6 |
| 1.17 | 0.000437 | 375000 | B7 |
| 0.956 | 0.000434 | 454000 | B8 |
| 0.852 | 0.000288 | 338000 | B9 |
| 1.16 | 0.000347 | 300000 | B10 |
| 0.542 | 0.00016 | 295000 | B11 |
| 1.2 | 0.000338 | 281000 | B12 |
| 0.435 | 0.000397 | 913000 | B13 |
| 1.12 | 0.000345 | 309000 | B14 |
| ≤ 0.0452 | ≤ 1e-05 | 221000 | B15 |
| 1 | 0.000351 | 350000 | B16 |

Target: T3, CTLA4-Fc
Test: cell-based or functional assay

| IC50 (nM), IL-2 secreted by Jurkat cells co-cultured with CHO/CD80 cells, Experiment 1 [nM] | IC50 (nM), IL-2 secreted by Jurkat cells co-cultured with CHO/CD80 cells, Experiment 2 [nM] | Binder |
| --- | --- | --- |
| 27.3 | 16.6 | B1 |
| 26.4 | 22.3 | B2 |
| 22.7 | 14.9 | B3 |

Target: T1, human CTLA-4
Test: ligand blocking assay with purified proteins; competitor CD80

| IC50 [nM] | Binder |
| --- | --- |
| 0.641 | B1 |
| 12.8 | B2 |
| 0.822 | B3 |

Target: T1, human CTLA-4
Test: ligand blocking assay with purified proteins; competitor CD86

| IC50 [nM] | Binder |
| --- | --- |
| 0.271 | B1 |
| 1.61 | B2 |
| 0.369 | B3 |

Target: T5, murine CTLA-4 (murine, UniProt P09793 36-161, limits assumed)
T5 construct: ELISA antigen; construct not described; also called mouse CTLA-4
Test: ELISA, murine CTLA-4 binding assay

| binding result | Binder |
| --- | --- |
| no binding | B1 |
| no binding | B2 |
| no binding | B3 |

Target: T3, CTLA4-Fc
Test: cell-based or functional assay
Remark: another data set of the same source

| IC50 (nM), Jurkat cell activation assay of Example 2 (IL-2) [nM] | Binder |
| --- | --- |
| 8.7 | B6 |
| 3.1 | B15 |

Target: T4, cyno Macaque CTLA-4
Test: ELISA, cyno CTLA-4 binding

| EC50 [nM] | Binder |
| --- | --- |
| 0.045 | B1 |
| 0.01 | B2 |
| 0.054 | B3 |

Target: T2, CTLA4-his
Test: SPR Biacore 8k, purified antibody captured on chip, CTLA4-his as analyte
Procedure: The affinities of purified antibody binding to CTLA4-his was determined using a Surface Plasmon Resonance (SPR) biosensor, Biacore 8k. Antibodies were immobilized on the sensor chip through capture method. Antigen CTLA4-his was used as the analyte. The data of dissociation (kd) and association (ka) rate constants were obtained using Biacore 8k evaluation software. The equilibrium dissociation constants (KD) were calculated from the ratio of kd over ka.

| Kd [nM] | koff [s⁻¹] | kon [M⁻¹ s⁻¹] | Binder |
| --- | --- | --- | --- |
| 0.339 | 0.000307 | 904000 | B6 |
| 0.0248 | 1.99e-05 | 802000 | B15 |
